{"source": "patent US20250361268A1", "about": "“NOVEL ANTI-INFLAMMATORY PEPTIDE AND USE THEREOF” (NOVACELL TECHNOLOGY INC., priority 2022, published 2025)", "key": {"[1]": {"biological_target": "T1, formyl peptide receptor 2 (FPR2) (UniProt P25090 1-351, limits assumed)", "T1 sequence (looked up)": "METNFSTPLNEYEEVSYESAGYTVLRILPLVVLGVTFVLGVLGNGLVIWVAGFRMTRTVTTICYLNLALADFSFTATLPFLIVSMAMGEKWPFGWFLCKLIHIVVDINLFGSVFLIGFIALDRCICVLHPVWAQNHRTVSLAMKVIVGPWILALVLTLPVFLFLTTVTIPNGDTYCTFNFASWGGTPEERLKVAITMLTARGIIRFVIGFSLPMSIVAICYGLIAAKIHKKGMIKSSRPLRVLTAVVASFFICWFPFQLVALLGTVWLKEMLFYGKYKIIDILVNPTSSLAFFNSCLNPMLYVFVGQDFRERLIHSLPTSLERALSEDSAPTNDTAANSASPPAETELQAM", "assay": "cell-based or functional assay"}, "[2]": {"biological_target": "T2, FPR1 (UniProt P21462 1-350, limits assumed)", "T2 sequence (looked up)": "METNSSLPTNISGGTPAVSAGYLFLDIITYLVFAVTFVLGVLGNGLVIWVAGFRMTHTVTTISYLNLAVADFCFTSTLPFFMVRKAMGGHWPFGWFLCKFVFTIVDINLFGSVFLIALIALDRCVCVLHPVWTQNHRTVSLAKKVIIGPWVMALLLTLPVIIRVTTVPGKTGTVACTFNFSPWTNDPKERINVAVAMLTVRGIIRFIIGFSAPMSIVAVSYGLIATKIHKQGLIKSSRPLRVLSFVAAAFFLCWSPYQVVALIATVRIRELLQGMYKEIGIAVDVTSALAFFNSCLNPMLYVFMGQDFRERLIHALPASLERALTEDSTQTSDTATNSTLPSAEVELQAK", "assay": "cell-based or functional assay"}}}
{"binder": "KWKYYVM (HELM PEPTIDE1{K.W.K.Y.Y.V.[dM].[am]}$$$$V2.0; N-terminus assumed; SMILES CSCC[C@@H](NC(=O)[C@@H](NC(=O)[C@H](Cc1ccc(O)cc1)NC(=O)[C@H](Cc1ccc(O)cc1)NC(=O)[C@H](CCCCN)NC(=O)[C@H](Cc1c[nH]c2ccccc12)NC(=O)[C@@H](N)CCCCN)C(C)C)C(N)=O)", "note": "[peptide of SEQ ID NO 96]", "values": [{"measurement": "EC50 for [Ca2+]", "setting": "[1]", "value": "< 0.01", "unit": "µM"}]}
{"binder": "WRYWVM (HELM PEPTIDE1{[ac].W.R.Y.W.V.[dM].[am]}$$$$V2.0; SMILES CSCC[C@@H](NC(=O)[C@@H](NC(=O)[C@H](Cc1c[nH]c2ccccc12)NC(=O)[C@H](Cc1ccc(O)cc1)NC(=O)[C@H](CCCNC(=N)N)NC(=O)[C@H](Cc1c[nH]c2ccccc12)NC(C)=O)C(C)C)C(N)=O)", "note": "[peptide of SEQ ID NO 102]", "values": [{"measurement": "EC50 for [Ca2+]", "setting": "[1]", "value": "< 0.01", "unit": "µM"}]}
{"binder": "RMRYKYM (HELM PEPTIDE1{[ac].R.M.R.Y.K.Y.[dM].[am]}$$$$V2.0; SMILES CSCC[C@H](NC(=O)[C@H](CCCNC(=N)N)NC(C)=O)C(=O)N[C@@H](CCCNC(=N)N)C(=O)N[C@@H](Cc1ccc(O)cc1)C(=O)N[C@@H](CCCCN)C(=O)N[C@@H](Cc1ccc(O)cc1)C(=O)N[C@H](CCSC)C(N)=O)", "note": "[peptide of SEQ ID NO 39]", "values": [{"measurement": "EC50 for [Ca2+]", "setting": "[2]", "value": "> 10", "unit": "µM"}]}
{"binder": "RMRYYVM (HELM PEPTIDE1{R.M.R.Y.Y.V.[dM].[am]}$$$$V2.0; N-terminus assumed; SMILES CSCC[C@H](NC(=O)[C@@H](N)CCCNC(=N)N)C(=O)N[C@@H](CCCNC(=N)N)C(=O)N[C@@H](Cc1ccc(O)cc1)C(=O)N[C@@H](Cc1ccc(O)cc1)C(=O)N[C@H](C(=O)N[C@H](CCSC)C(N)=O)C(C)C)", "note": "[peptide of SEQ ID NO 97]", "values": [{"measurement": "EC50 for [Ca2+]", "setting": "[1]", "value": "< 0.01", "unit": "µM"}]}
{"binder": "MRYYVM (HELM PEPTIDE1{M.R.Y.Y.V.[dM].[am]}$$$$V2.0; N-terminus assumed; SMILES CSCC[C@H](N)C(=O)N[C@@H](CCCNC(=N)N)C(=O)N[C@@H](Cc1ccc(O)cc1)C(=O)N[C@@H](Cc1ccc(O)cc1)C(=O)N[C@H](C(=O)N[C@H](CCSC)C(N)=O)C(C)C)", "note": "[peptide of SEQ ID NO 100]", "values": [{"measurement": "EC50 for [Ca2+]", "setting": "[1]", "value": "< 0.01", "unit": "µM"}]}
{"binder": "RWRYKYM (HELM PEPTIDE1{[CCCCCCCC(=O)[*:2]].R.W.R.Y.K.Y.[dM].[am]}$$$$V2.0; SMILES CCCCCCCC(=O)N[C@@H](CCCNC(=N)N)C(=O)N[C@@H](Cc1c[nH]c2ccccc12)C(=O)N[C@@H](CCCNC(=N)N)C(=O)N[C@@H](Cc1ccc(O)cc1)C(=O)N[C@@H](CCCCN)C(=O)N[C@@H](Cc1ccc(O)cc1)C(=O)N[C@H](CCSC)C(N)=O)", "note": "[peptide of SEQ ID NO 34]", "values": [{"measurement": "EC50 for [Ca2+]", "setting": "[2]", "value": "> 10", "unit": "µM"}]}
{"binder": "MRYWVM (HELM PEPTIDE1{[ac].M.R.Y.W.V.[dM].[am]}$$$$V2.0; SMILES CSCC[C@H](NC(C)=O)C(=O)N[C@@H](CCCNC(=N)N)C(=O)N[C@@H](Cc1ccc(O)cc1)C(=O)N[C@@H](Cc1c[nH]c2ccccc12)C(=O)N[C@H](C(=O)N[C@H](CCSC)C(N)=O)C(C)C)", "note": "[peptide of SEQ ID NO 105]", "values": [{"measurement": "EC50 for [Ca2+]", "setting": "[1]", "value": "< 0.01", "unit": "µM"}]}
{"binder": "RMRYKYM (HELM PEPTIDE1{[CCCCCCCC(=O)[*:2]].R.M.R.Y.K.Y.[dM].[am]}$$$$V2.0; SMILES CCCCCCCC(=O)N[C@@H](CCCNC(=N)N)C(=O)N[C@@H](CCSC)C(=O)N[C@@H](CCCNC(=N)N)C(=O)N[C@@H](Cc1ccc(O)cc1)C(=O)N[C@@H](CCCCN)C(=O)N[C@@H](Cc1ccc(O)cc1)C(=O)N[C@H](CCSC)C(N)=O)", "note": "[peptide of SEQ ID NO 40]", "values": [{"measurement": "EC50 for [Ca2+]", "setting": "[2]", "value": "> 10", "unit": "µM"}]}
{"binder": "MRYKVM (HELM PEPTIDE1{[CCCCCCCC(=O)[*:2]].M.R.Y.K.V.[dM].[am]}$$$$V2.0; SMILES CCCCCCCC(=O)N[C@@H](CCSC)C(=O)N[C@@H](CCCNC(=N)N)C(=O)N[C@@H](Cc1ccc(O)cc1)C(=O)N[C@@H](CCCCN)C(=O)N[C@H](C(=O)N[C@H](CCSC)C(N)=O)C(C)C)", "note": "[peptide of SEQ ID NO 16]", "values": [{"measurement": "EC50 for [Ca2+]", "setting": "[2]", "value": "> 10", "unit": "µM"}]}
{"binder": "MRYKYM (HELM PEPTIDE1{[ac].M.R.Y.K.Y.[dM].[am]}$$$$V2.0; SMILES CSCC[C@H](NC(C)=O)C(=O)N[C@@H](CCCNC(=N)N)C(=O)N[C@@H](Cc1ccc(O)cc1)C(=O)N[C@@H](CCCCN)C(=O)N[C@@H](Cc1ccc(O)cc1)C(=O)N[C@H](CCSC)C(N)=O)", "note": "[peptide of SEQ ID NO 42]", "values": [{"measurement": "EC50 for [Ca2+]", "setting": "[2]", "value": "> 10", "unit": "µM"}]}
{"binder": "RWRYWVM (HELM PEPTIDE1{R.W.R.Y.W.V.[dM].[am]}$$$$V2.0; N-terminus assumed; SMILES CSCC[C@@H](NC(=O)[C@@H](NC(=O)[C@H](Cc1c[nH]c2ccccc12)NC(=O)[C@H](Cc1ccc(O)cc1)NC(=O)[C@H](CCCNC(=N)N)NC(=O)[C@H](Cc1c[nH]c2ccccc12)NC(=O)[C@@H](N)CCCNC(=N)N)C(C)C)C(N)=O)", "note": "[peptide of SEQ ID NO 101]", "values": [{"measurement": "EC50 for [Ca2+]", "setting": "[1]", "value": "< 0.01", "unit": "µM"}]}
{"binder": "RWRYYVM (HELM PEPTIDE1{R.W.R.Y.Y.V.[dM].[am]}$$$$V2.0; N-terminus assumed; SMILES CSCC[C@@H](NC(=O)[C@@H](NC(=O)[C@H](Cc1ccc(O)cc1)NC(=O)[C@H](Cc1ccc(O)cc1)NC(=O)[C@H](CCCNC(=N)N)NC(=O)[C@H](Cc1c[nH]c2ccccc12)NC(=O)[C@@H](N)CCCNC(=N)N)C(C)C)C(N)=O)", "note": "[peptide of SEQ ID NO 94]", "values": [{"measurement": "EC50 for [Ca2+]", "setting": "[1]", "value": "< 0.01", "unit": "µM"}]}
{"binder": "RWRYKPM (HELM PEPTIDE1{[CCCC(=O)[*:2]].R.W.R.Y.K.P.[dM].[am]}$$$$V2.0; SMILES CCCC(=O)N[C@@H](CCCNC(=N)N)C(=O)N[C@@H](Cc1c[nH]c2ccccc12)C(=O)N[C@@H](CCCNC(=N)N)C(=O)N[C@@H](Cc1ccc(O)cc1)C(=O)N[C@@H](CCCCN)C(=O)N1CCC[C@H]1C(=O)N[C@H](CCSC)C(N)=O)", "note": "[peptide of SEQ ID NO 75]", "values": [{"measurement": "EC50 for [Ca2+]", "setting": "[1]", "value": "< 0.01", "unit": "µM"}]}
{"binder": "RMRYYVM (HELM PEPTIDE1{[ac].R.M.R.Y.Y.V.[dM].[am]}$$$$V2.0; SMILES CSCC[C@H](NC(=O)[C@H](CCCNC(=N)N)NC(C)=O)C(=O)N[C@@H](CCCNC(=N)N)C(=O)N[C@@H](Cc1ccc(O)cc1)C(=O)N[C@@H](Cc1ccc(O)cc1)C(=O)N[C@H](C(=O)N[C@H](CCSC)C(N)=O)C(C)C)", "note": "[peptide of SEQ ID NO 98]", "values": [{"measurement": "EC50 for [Ca2+]", "setting": "[1]", "value": "< 0.01", "unit": "µM"}]}
{"binder": "HMRYWYM (HELM PEPTIDE1{[CCCC(=O)[*:2]].H.M.R.Y.W.Y.[dM].[am]}$$$$V2.0; SMILES CCCC(=O)N[C@@H](Cc1c[nH]cn1)C(=O)N[C@@H](CCSC)C(=O)N[C@@H](CCCNC(=N)N)C(=O)N[C@@H](Cc1ccc(O)cc1)C(=O)N[C@@H](Cc1c[nH]c2ccccc12)C(=O)N[C@@H](Cc1ccc(O)cc1)C(=O)N[C@H](CCSC)C(N)=O)", "note": "[peptide of SEQ ID NO 93]", "values": [{"measurement": "EC50 for [Ca2+]", "setting": "[1]", "value": "< 0.01", "unit": "µM"}]}
{"binder": "RWRYKYM (HELM PEPTIDE1{R.W.R.Y.K.Y.[dM].[am]}$$$$V2.0; N-terminus assumed; SMILES CSCC[C@@H](NC(=O)[C@H](Cc1ccc(O)cc1)NC(=O)[C@H](CCCCN)NC(=O)[C@H](Cc1ccc(O)cc1)NC(=O)[C@H](CCCNC(=N)N)NC(=O)[C@H](Cc1c[nH]c2ccccc12)NC(=O)[C@@H](N)CCCNC(=N)N)C(N)=O)", "note": "[peptide of SEQ ID NO 32]", "values": [{"measurement": "EC50 for [Ca2+]", "setting": "[2]", "value": "> 10", "unit": "µM"}]}
{"binder": "WRYKPM (HELM PEPTIDE1{[ac].W.R.Y.K.P.[dM].[am]}$$$$V2.0; SMILES CSCC[C@@H](NC(=O)[C@@H]1CCCN1C(=O)[C@H](CCCCN)NC(=O)[C@H](Cc1ccc(O)cc1)NC(=O)[C@H](CCCNC(=N)N)NC(=O)[C@H](Cc1c[nH]c2ccccc12)NC(C)=O)C(N)=O)", "note": "[peptide of SEQ ID NO 76]", "values": [{"measurement": "EC50 for [Ca2+]", "setting": "[1]", "value": "< 0.01", "unit": "µM"}]}
{"binder": "MKYKVM (HELM PEPTIDE1{[CCCCCCCC(=O)[*:2]].M.K.Y.K.V.[dM].[am]}$$$$V2.0; SMILES CCCCCCCC(=O)N[C@@H](CCSC)C(=O)N[C@@H](CCCCN)C(=O)N[C@@H](Cc1ccc(O)cc1)C(=O)N[C@@H](CCCCN)C(=O)N[C@H](C(=O)N[C@H](CCSC)C(N)=O)C(C)C)", "note": "[peptide of SEQ ID NO 20]", "values": [{"measurement": "EC50 for [Ca2+]", "setting": "[2]", "value": "> 10", "unit": "µM"}]}
{"binder": "RMRYWVM (HELM PEPTIDE1{[ac].R.M.R.Y.W.V.[dM].[am]}$$$$V2.0; SMILES CSCC[C@H](NC(=O)[C@H](CCCNC(=N)N)NC(C)=O)C(=O)N[C@@H](CCCNC(=N)N)C(=O)N[C@@H](Cc1ccc(O)cc1)C(=O)N[C@@H](Cc1c[nH]c2ccccc12)C(=O)N[C@H](C(=O)N[C@H](CCSC)C(N)=O)C(C)C)", "note": "[peptide of SEQ ID NO 104]", "values": [{"measurement": "EC50 for [Ca2+]", "setting": "[1]", "value": "< 0.01", "unit": "µM"}]}
